Results taken from the supplement of paper PMC9112550, “Optimization of the antimicrobial peptide Bac7 by deep mutational scanning” (BMC Biology, 2022).

Test system: Escherichia coli TOP10
Assay: shrunken log2 fold change of peptide-encoding DNA abundance (4.5 h post-induction vs induction); higher = less antimicrobial activity (less host growth inhibition)
Conditions: time post-induction: 4.5 h; library: site-saturation at positions 5, 18, 19, 20
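Note: peptides expressed intracellularly from a pBAD plasmid library in pooled LB shake-flask culture, induced with 0.3% L-arabinose, DNA abundance read by NGS, three biological replicates, DESeq2 with apeglm shrinkage.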

Question: Which “shrunken log2 fold change” value does the source give for RRIRQRPPRLPRPRPRPPQVPRP here?
Answer: The value was 1.3.

Question: Which “shrunken log2 fold change” value does the source give for RRIRQRPPRLPRPRPRPPRWPRP here?
Answer: Its value is 0.303.

Question: How did the “shrunken log2 fold change” value turn out when RRIRQRPPRLPRPRPRPPVRPRP was run?
Answer: Its value is 0.739.

Question: How did the “shrunken log2 fold change” value turn out when RRIRQRPPRLPRPRPRPPWSPRP was run?
Answer: Its value is 0.223.

Question: RRIRQRPPRLPRPRPRPPYEPRP was tested. Which “shrunken log2 fold change” value did it give?
Answer: Its value is -0.114.

Question: RRIRQRPPRLPRPRPRPPYNPRP was tested. Which “shrunken log2 fold change” value did it give?
Answer: The value was -0.154.

Question: With RRIRQRPPRLPRPRPRPQADPRP as the sequence, how does the “shrunken log2 fold change” value read?
Answer: Its value is 0.0769.

Question: RRIRQRPPRLPRPRPRPQAQPRP was tested. Which “shrunken log2 fold change” value did it give?
Answer: Its value is 0.0471.

Question: RRIRQRPPRLPRPRPRPQCTPRP was tested. Which “shrunken log2 fold change” value did it give?
Answer: The value was -0.0165.

Question: How did the “shrunken log2 fold change” value turn out when RRIRQRPPRLPRPRPRPQDKPRP was run?
Answer: Its value is -0.802.

Question: How did the “shrunken log2 fold change” value turn out when RRIRQRPPRLPRPRPRPQEDPRP was run?
Answer: Its value is -0.0264.

Question: With RRIRQRPPRLPRPRPRPQERPRP as the sequence, how does the “shrunken log2 fold change” value read?
Answer: Its value is -0.00247.

Question: For RRIRQRPPRLPRPRPRPQFGPRP, which “shrunken log2 fold change” value is on record?
Answer: Its value is 0.0348.

Question: How did the “shrunken log2 fold change” value turn out when RRIRQRPPRLPRPRPRPQFNPRP was run?
Answer: The value was -0.6.

Question: RRIRQRPPRLPRPRPRPQFRPRP was tested. Which “shrunken log2 fold change” value did it give?
Answer: The value was -0.0194.

Question: For RRIRQRPPRLPRPRPRPQFYPRP, which “shrunken log2 fold change” value is on record?
Answer: The value was -0.407.

Question: With RRIRQRPPRLPRPRPRPQGGPRP as the sequence, how does the “shrunken log2 fold change” value read?
Answer: Its value is 0.00902.

Question: Which “shrunken log2 fold change” value does the source give for RRIRQRPPRLPRPRPRPQGWPRP here?
Answer: Its value is -0.151.

Question: For RRIRQRPPRLPRPRPRPQIMPRP, which “shrunken log2 fold change” value is on record?
Answer: The value was -0.528.

Question: Which “shrunken log2 fold change” value does the source give for RRIRQRPPRLPRPRPRPQINPRP here?
Answer: Its value is -0.285.

Question: Which “shrunken log2 fold change” value does the source give for RRIRQRPPRLPRPRPRPQKWPRP here?
Answer: The value was 0.0876.

Question: For RRIRQRPPRLPRPRPRPQLMPRP, which “shrunken log2 fold change” value is on record?
Answer: Its value is -0.166.

Question: How did the “shrunken log2 fold change” value turn out when RRIRQRPPRLPRPRPRPQLSPRP was run?
Answer: Its value is -0.0914.

Question: With RRIRQRPPRLPRPRPRPQMLPRP as the sequence, how does the “shrunken log2 fold change” value read?
Answer: Its value is 0.0203.

Question: With RRIRQRPPRLPRPRPRPQMNPRP as the sequence, how does the “shrunken log2 fold change” value read?
Answer: The value was -0.72.

Question: Which “shrunken log2 fold change” value does the source give for RRIRQRPPRLPRPRPRPQMVPRP here?
Answer: Its value is 0.00426.

Question: With RRIRQRPPRLPRPRPRPQQHPRP as the sequence, how does the “shrunken log2 fold change” value read?
Answer: The value was -0.362.

Question: Which “shrunken log2 fold change” value does the source give for RRIRQRPPRLPRPRPRPQSWPRP here?
Answer: Its value is 0.0219.

Question: How did the “shrunken log2 fold change” value turn out when RRIRQRPPRLPRPRPRPQVHPRP was run?
Answer: The value was 0.0124.

Question: RRIRQRPPRLPRPRPRPQYNPRP was tested. Which “shrunken log2 fold change” value did it give?
Answer: The value was -1.1.

Question: RRIRQRPPRLPRPRPRPRCDPRP was tested. Which “shrunken log2 fold change” value did it give?
Answer: The value was -0.255.

Question: How did the “shrunken log2 fold change” value turn out when RRIRQRPPRLPRPRPRPRCRPRP was run?
Answer: Its value is 0.0135.

Question: Which “shrunken log2 fold change” value does the source give for RRIRQRPPRLPRPRPRPRCWPRP here?
Answer: Its value is 0.257.

Question: RRIRQRPPRLPRPRPRPRDGPRP was tested. Which “shrunken log2 fold change” value did it give?
Answer: The value was 0.666.

Question: How did the “shrunken log2 fold change” value turn out when RRIRQRPPRLPRPRPRPREIPRP was run?
Answer: The value was 0.115.

Question: With RRIRQRPPRLPRPRPRPREMPRP as the sequence, how does the “shrunken log2 fold change” value read?
Answer: The value was 0.0554.

Question: Which “shrunken log2 fold change” value does the source give for RRIRQRPPRLPRPRPRPRFCPRP here?
Answer: Its value is -0.16.

Question: With RRIRQRPPRLPRPRPRPRFRPRP as the sequence, how does the “shrunken log2 fold change” value read?
Answer: The value was 0.0281.

Question: For RRIRQRPPRLPRPRPRPRFWPRP, which “shrunken log2 fold change” value is on record?
Answer: The value was 0.23.

Question: For RRIRQRPPRLPRPRPRPRKAPRP, which “shrunken log2 fold change” value is on record?
Answer: Its value is -0.0029.

Question: For RRIRQRPPRLPRPRPRPRKIPRP, which “shrunken log2 fold change” value is on record?
Answer: The value was -0.064.

Question: With RRIRQRPPRLPRPRPRPRNLPRP as the sequence, how does the “shrunken log2 fold change” value read?
Answer: Its value is 0.242.

Question: For RRIRQRPPRLPRPRPRPRPCPRP, which “shrunken log2 fold change” value is on record?
Answer: Its value is 0.409.

Question: For RRIRQRPPRLPRPRPRPRQYPRP, which “shrunken log2 fold change” value is on record?
Answer: Its value is -0.163.

Question: RRIRQRPPRLPRPRPRPRRPPRP was tested. Which “shrunken log2 fold change” value did it give?
Answer: Its value is 0.472.

Question: For RRIRQRPPRLPRPRPRPRRRPRP, which “shrunken log2 fold change” value is on record?
Answer: Its value is 0.255.

Question: How did the “shrunken log2 fold change” value turn out when RRIRQRPPRLPRPRPRPRTCPRP was run?
Answer: Its value is -0.576.

Question: For RRIRQRPPRLPRPRPRPRTGPRP, which “shrunken log2 fold change” value is on record?
Answer: The value was 0.443.

Question: RRIRQRPPRLPRPRPRPRTYPRP was tested. Which “shrunken log2 fold change” value did it give?
Answer: Its value is -0.049.

Question: For RRIRQRPPRLPRPRPRPRYHPRP, which “shrunken log2 fold change” value is on record?
Answer: The value was -0.784.

Question: RRIRQRPPRLPRPRPRPRYLPRP was tested. Which “shrunken log2 fold change” value did it give?
Answer: The value was -0.422.

Question: For RRIRQRPPRLPRPRPRPRYVPRP, which “shrunken log2 fold change” value is on record?
Answer: Its value is -0.215.

Question: RRIRQRPPRLPRPRPRPSAQPRP was tested. Which “shrunken log2 fold change” value did it give?
Answer: Its value is -0.223.

Question: Which “shrunken log2 fold change” value does the source give for RRIRQRPPRLPRPRPRPSFCPRP here?
Answer: Its value is 0.462.

Question: RRIRQRPPRLPRPRPRPSFLPRP was tested. Which “shrunken log2 fold change” value did it give?
Answer: Its value is -0.355.

Question: For RRIRQRPPRLPRPRPRPSGQPRP, which “shrunken log2 fold change” value is on record?
Answer: Its value is -0.0485.

Question: With RRIRQRPPRLPRPRPRPSHCPRP as the sequence, how does the “shrunken log2 fold change” value read?
Answer: The value was 0.0811.

Question: RRIRQRPPRLPRPRPRPSHFPRP was tested. Which “shrunken log2 fold change” value did it give?
Answer: Its value is 0.0685.

Question: RRIRQRPPRLPRPRPRPSIAPRP was tested. Which “shrunken log2 fold change” value did it give?
Answer: The value was -0.00998.

Question: Which “shrunken log2 fold change” value does the source give for RRIRQRPPRLPRPRPRPSKAPRP here?
Answer: Its value is 0.356.

Question: For RRIRQRPPRLPRPRPRPSKMPRP, which “shrunken log2 fold change” value is on record?
Answer: The value was -0.0686.

Question: Which “shrunken log2 fold change” value does the source give for RRIRQRPPRLPRPRPRPSLRPRP here?
Answer: Its value is 0.239.

Question: RRIRQRPPRLPRPRPRPSNDPRP was tested. Which “shrunken log2 fold change” value did it give?
Answer: The value was -0.357.

Question: How did the “shrunken log2 fold change” value turn out when RRIRQRPPRLPRPRPRPSPKPRP was run?
Answer: Its value is -0.143.

Question: For RRIRQRPPRLPRPRPRPSQEPRP, which “shrunken log2 fold change” value is on record?
Answer: The value was 0.0169.

Question: How did the “shrunken log2 fold change” value turn out when RRIRQRPPRLPRPRPRPSREPRP was run?
Answer: Its value is 0.111.

Question: How did the “shrunken log2 fold change” value turn out when RRIRQRPPRLPRPRPRPSTSPRP was run?
Answer: The value was -0.126.

Question: For RRIRQRPPRLPRPRPRPSVPPRP, which “shrunken log2 fold change” value is on record?
Answer: Its value is -0.0859.

Question: RRIRQRPPRLPRPRPRPSVQPRP was tested. Which “shrunken log2 fold change” value did it give?
Answer: The value was -0.0622.

Question: With RRIRQRPPRLPRPRPRPSWIPRP as the sequence, how does the “shrunken log2 fold change” value read?
Answer: Its value is -0.225.

Question: For RRIRQRPPRLPRPRPRPSYHPRP, which “shrunken log2 fold change” value is on record?
Answer: Its value is -0.178.

Question: With RRIRQRPPRLPRPRPRPTAVPRP as the sequence, how does the “shrunken log2 fold change” value read?
Answer: The value was 0.165.

Question: Which “shrunken log2 fold change” value does the source give for RRIRQRPPRLPRPRPRPTCNPRP here?
Answer: Its value is -0.348.

Question: RRIRQRPPRLPRPRPRPTDHPRP was tested. Which “shrunken log2 fold change” value did it give?
Answer: Its value is 0.0174.

Question: For RRIRQRPPRLPRPRPRPTEDPRP, which “shrunken log2 fold change” value is on record?
Answer: Its value is 0.0148.
